# Experimental data as given in IntAct's records for PubMed 20133777.
# B1: Receptor-type tyrosine-protein phosphatase T (Homo sapiens), O14522-1 (parent)
# chain: MASLAALALSLLLRLQLPPLPGARAQSAAGGCSFDEHYSNCGYSVALGTNGFTWEQINTWEKPMLDQAVPTGSFMMVNSSGRASGQKAHLLLPTLKENDTHCIDFHYYFSSRDRSSPGALNVYVKVNGGPQGNPVWNVSGVVTEGWVKAELAISTFWPHFYQVIFESVSLKGHPGYIAVDEVRVLAHPCRKAPHFLRLQNVEVNVGQNATFQCIAGGKWSQHDKLWLQQWNGRDTALMVTRVVNHRRFSATVSVADTAQRSVSKYRCVIRSDGGSGVSNYAELIVKEPPTPIAPPELLAVGATYLWIKPNANSIIGDGPIILKEVEYRTTTGTWAETHIVDSPNYKLWHLDPDVEYEIRVLLTRPGEGGTGPPGPPLTTRTKCADPVHGPQNVEIVDIRARQLTLQWEPFGYAVTRCHSYNLTVQYQYVFNQQQYEAEEVIQTSSHYTLRGLRPFMTIRLRLLLSNPEGRMESEELVVQTEEDVPGAVPLESIQGGPFEEKIYIQWKPPNETNGVITLYEINYKAVGSLDPSADLSSQRGKVFKLRNETHHLFVGLYPGTTYSFTIKASTAKGFGPPVTTRIATKISAPSMPEYDTDTPLNETDTTITVMLKPAQSRGAPVSVYQLVVKEERLQKSRRAADIIECFSVPVSYRNASSLDSLHYFAAELKPANLPVTQPFTVGDNKTYNGYWNPPLSPLKSYSIYFQALSKANGETKINCVRLATKAPMGSAQVTPGTPLCLLTTGASTQNSNTVEPEKQVDNTVKMAGVIAGLLMFIIILLGVMLTIKRRRNAYSYSYYLSQRKLAKKQKETQSGAQREMGPVASADKPTTKLSASRNDEGFSSSSQDVNGFTDGSRGELSQPTLTIQTHPYRTCDPVEMSYPRDQFQPAIRVADLLQHITQMKRGQGYGFKEEYEALPEGQTASWDTAKEDENRNKNRYGNIISYDHSRVRLLVLDGDPHSDYINANYIDGYHRPRHYIATQGPMQETVKDFWRMIWQENSASIVMVTNLVEVGRVKCVRYWPDDTEVYGDIKVTLIETEPLAEYVIRTFTVQKKGYHEIRELRLFHFTSWPDHGVPCYATGLLGFVRQVKFLNPPEAGPIVVHCSAGAGRTGCFIAIDTMLDMAENEGVVDIFNCVRELRAQRVNLVQTEEQYVFVHDAILEACLCGNTAIPVCEFRSLYYNISRLDPQTNSSQIKDEFQTLNIVTPRVRPEDCSIGLLPRNHDKNRSMDVLPLDRCLPFLISVDGESSNYINAALMDSHKQPAAFVVTQHPLPNTVADFWRLVFDYNCSSVVMLNEMDTAQFCMQYWPEKTSGCYGPIQVEFVSADIDEDIIHRIFRICNMARPQDGYRIVQHLQYIGWPAYRDTPPSKRSLLKVVRRLEKWQEQYDGREGRTVVHCLNGGGRSGTFCAICSVCEMIQQQNIIDVFHIVKTLRNNKSNMVETLEQYKFVYEVALEYLSSF
# Variants of: B1
# Settings: with paxi_human PXN
row,effect of a mutation on the interaction,Variant
1,increasing interaction,D1074A;C1106S
2,increasing interaction,D1074A
